Test results taken from the Human Domainome abundance scans (Beltran et al. 2025).

B1: Tumor protein 63, residues 545 to 610; numbered along this chain, Q9H3D4 (parent)
chain: TDCSIVSFLARLGCSSCLDYFTTQGLTTIYQIEHYSMDDLASLKIPEQFRHAIWKGILDHRQLHEF

Variants of: B1
Assay: abundance fitness (aPCA) (normalised: wild type 0, dead -1); higher = more abundant; growth selection in yeast, the domain comes from the species named
Conditions: Homo sapiens

Abundance fitness: each site, then its substitutions
K44: E 0.002 | L -0.076 | H -0.075 | Q -0.014 | W -0.154 | N -0.021 | C -0.052 | M -0.039 | F -0.081 | S -0.015 | V -0.23 | A -0.037 | Y -0.083 | I -0.4 | G 0.013 | D -0.011 | R -0.014 | T -0.061
R50: A -0.092 | H -0.03 | E -0.159 | F -0.149 | D -0.712 | K -0.067 | C -0.052 | G -0.274 | L -0.036
F49: L -0.059 | N -0.058 | D -0.021 | Q -0.023 | H -0.004 | E -0.007 | K -0.027 | M -0.014 | V -0.113 | G -0.174 | P -0.061 | C -0.047 | S -0.026 | I -0.168 | T -0.127 | W -0.052
S42: G 0.051 | V -0.011 | E 0.008 | A -0.019 | L -0.01 | H -0.011 | M -0.001 | W -0.097 | P -0.176 | D 0.008 | K 0 | I 0.004 | C -0.061 | T -0.01 | Y -0.069 | N 0.013 | Q -0.001
I45: E -0.676 | L -0.034 | H -0.925 | W -0.967 | M -0.143 | T -0.588 | Y -0.821 | A -0.721 | C -0.283 | V -0.021 | G -0.913 | Q -0.965 | F -0.358 | P -0.865 | S -1.04 | D -0.982 | R -1.02 | K -0.72
L40: V -0.122 | Y -0.277 | W -0.764
E47: M -0.04 | W -0.08 | F -0.127 | P -0.009 | L -0.022 | D 0.012 | R -0.054 | C -0.076 | Y -0.002 | A -0.014 | N -0.011 | H -0.067 | S -0.02 | G 0.041 | Q -0.004 | T -0.036 | I -0.045
A41: F -0.1 | C 0.012 | T -0.028 | V -0.002 | R -0.039 | L -0.06 | N -0.024 | W -0.111 | D -0.035 | K 0.008 | H -0.081 | G -0.043 | M -0.088 | E -0.012 | S -0.04 | P -0.734 | I 0.003 | Y -0.103 | Q -0.008
P46: D -0.283 | K -0.384 | E -0.155 | N -0.396 | V -0.922 | Y -1.12 | R -0.66 | T -0.46 | S -0.351 | M -0.928 | F -0.913 | W -1.1 | I -1.01 | L -0.976 | G -0.289 | H -0.531 | A -0.406 | Q -0.387
Q48: W -0.203 | E 0.035 | L -0.063 | Y -0.078 | S -0.038 | N -0.006 | K -0.015 | A -0.024 | R -0.013 | C -0.064 | D -0.04 | H -0.005 | G -0.025 | I -0.052 | V -0.027 | T -0.023 | M -0.028 | P -0.006
L43: F -0.245 | S -0.386 | G -0.702 | R -0.304 | T -0.396 | H -0.296 | Y -0.526 | V -0.134 | N -0.447 | K -0.283 | D -0.503 | P -0.564 | C -0.171 | M -0.105
